This experiment deals with target antigen-expressing cell line. In words: Jurkat NFAT-GFP assay, coculture with target cell lines expressing the respective target antigen (summary Table 10A). Also on record: key: The signs +/−, +, 2+ etc. after the name of the cell lines indicate the relative degree of positivity on the Jurkat-NFAT-GFP assay as measured by the % GFP positive cells; +: relative degree of positivity on the Jurkat-NFAT-GFP assay as measured by the % GFP positive cells; 2+: relative degree of positivity on the Jurkat-NFAT-GFP assay as measured by the % GFP positive cells. It is filed as cell-based, human. An outline of the steps: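 Read-out: % GFP+ cells by FACS. SIR-transduced, puromycin-selected Jurkat NFAT-GFP (IL-2 promoter reporter) cocultured ~4–18 h with target line, E:T ~1:2; parental cells as control; graded +/−, +, 2+ relative to parental.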

B1: 041816-C01 (protein)
chain: MALPVTALLLPLALLLHAARPDTIVLTQSPASLAVSLGQRATISCRASESVDSYGNSFMHWYQQKPGQPPKLLIYLASNLESGVPARFSGSGSRTDFTLTIDPVEADDAATYYCQQNNYDPWTFGGGTKLEIKLEGKPIPNPLLGLDSTGSGEDLKNVFPPEVAVFEPSKAEIAHTQKATLVCLATGFYPDHVELSWWVNGKEVHSGVCTDPQPLKEQPALNDSRYCLSSRLRVSATFWQNPRNHFRCQVQFYGLSENDEWTQDRAKPVTQIVSAEAWGRADCGITSASYHQGVLSATILYEILLGKATLYAVLVSALVLMAMVKRKDSRGRAKRSGSGATNFSLLKQAGDVEENPGPTSMDWIWRILFLVGAATGAHSFEEVQLQQSGPELVKPGASVKMSCKASGYTFTSYVMHWVKQKPGQGLEWIGYINPYNDGTKYNEKFKGKATLTSDTSSSTAYMELNSLTSEDSAVYFCARPIYFDNDYFDYWGQGTTLKVSSTREQKLISEEDGSGTPFPSLAPPIMLLVDGKQQMVVVCLVLDVAPPGLDSPIWFSAGNGSALDAFTYGPSPATDGTWTNLAHLSLPSEELASWEPLVCHTGPGAEGHSRSTQPMHLSGEASTARTCPQEPLRGTPGGALWLGVLRLLLFKLLLFDLLLTCSCLCDPAGPLPSPATTTRLRALGSHRLHPATETGGREATSSPRPQPRDRRWGDTPPGRKPGSPVRAKRSGSGVKQTLNFDLLKLAGDVESNPGPSRGHMTEYKPTVRLATRDDVPRAVRTLAAAFADYPATRHTVDPDRHIERVTELQELFLTRVGLDIGKVWVADDGAAVAVWTTPESVEAGAVFAEIGPRMAELSGSRLAAQQQMEGLLAPHRPKEPAWFLATVGVSPDHQGKGLGSAVVLPGVEAAERAGVPAFLETSAPRNLPFYERLGFTVTADVEVPEGPRTWCMTRKPGA
modifications: Polynucleotide encoding a Synthetic Immune Receptor (SIR)
Turning to B1, the “NFAT-GFP ASSAY Positive Cell lines” value was “(+/−), L363 (+/−)” (coculture with L363 cells); “RAJI (+/−), U266” (coculture with RAJI cells); “(+/−), L363 (+/−)” (coculture with U266 cells).

B2: 041816-A03 (protein)
chain: MALPVTALLLPLALLLHAARPDIQMTQSPSSLSASLGERVSLTCRATQELSGYLSWLQQKPDGTIKRLIYAASTLDSGVPKRFSGNRSGSDYSLTISSLESEDFADYYCLQYAIYPYTFGGGTKLEIKLEDLKNVFPPEVAVFEPSEAEISHTQKATLVCLATGFYPDHVELSWWVNGKEVHSGVSTDPQPLKEQPALNDSRYCLSSRLRVSATFWQNPRNHFRCQVQFYGLSENDEWTQDRAKPVTQIVSAEAWGRADCGFTSESYQQGVLSATILYEILLGKATLYAVLVSALVLMAMVKRKDSRGRAKRSGSGATNFSLLKQAGDVEENPGPTSMDWIWRILFLVGAATGAHSFEEVQLQQSGPELVKPGASVKMSCKASGYTFTSYFIHWVKQKPGQGLEWIGFINPYNDGSKYNEKFKGKATLTSDKSSSTAYMELSSLTSEDSAVYYCTRDDGYYGYAMDYWGQGTSVTVSSTREQKLISEEDGSGTPFPSLAPPIMLLVDGKQQMVVVCLVLDVAPPGLDSPIWFSAGNGSALDAFTYGPSPATDGTWTNLAHLSLPSEELASWEPLVCHTGPGAEGHSRSTQPMHLSGEASTARTCPQEPLRGTPGGALWLGVLRLLLFKLLLFDLLLTCSCLCDPAGPLPSPATTTRLRALGSHRLHPATETGGREATSSPRPQPRDRRWGDTPPGRKPGSPVRAKRSGSGVKQTLNFDLLKLAGDVESNPGPSRGHMTEYKPTVRLATRDDVPRAVRTLAAAFADYPATRHTVDPDRHIERVTELQELFLTRVGLDIGKVWVADDGAAVAVWTTPESVEAGAVFAEIGPRMAELSGSRLAAQQQMEGLLAPHRPKEPAWFLATVGVSPDHQGKGLGSAVVLPGVEAAERAGVPAFLETSAPRNLPFYERLGFTVTADVEVPEGPRTWCMTRKPGA
modifications: Polynucleotide encoding a Synthetic Immune Receptor (SIR)
B2: the “NFAT-GFP ASSAY Positive Cell lines” value runs as follows: (coculture with L363 cells) “(+/−), L363 (+/−),”; (coculture with RAJI cells) “RAJI (+/−), U266”; (coculture with U266 cells) “(+/−), L363 (+/−),”.

B3: 110116-H02 (protein)
chain: MALPVTALLLPLALLLHAARPLEQKLISEEDLGSGDRPDPAVYQLRDSKSSDKSVCLFTDFDSQTNVSQSKDSDVYITDKCVLDMRSMDFKSNSAVAWSNKSDFACANAFNNSIIPEDTFFPSPESSCDVKLVEKSFETDTNLNFQNLSVIGFRILLLKVAGFNLLMTLRLWSSSSRAKRSGSGVKQTLNFDLLKLAGDVESNPGPTSMALPVTALLLPLALLLHAARPDIQMTQSTSSLSASLGDRVTISCSASQGINNYLNWYQQKPDGTVELLIYYTSTLQSGVPSRFSGSGSGTDYSLTISNLEPEDIGTYYCQQYSKLPRTFGGGTKLEIKGGGGSGGGGSGGGGSQVQLQQSGSELMMPGASVKISCKATGYTFSNYWIEWVKQRPGHGLEWIGEILPGTGRTIYNEKFKGKATFTADISSNTVQMQLSSLTSEDSAVYYCARRDYYGNFYYAMDYWGQGTSVTVSSTRGKPIPNPLLGLDSTGSGEDLKNVFPPEVAVFEPSEAEISHTQKATLVCLATGFYPDHVELSWWVNGKEVHSGVCTDPQPLKEQPALNDSRYCLSSRLRVSATFWQNPRNHFRCQVQFYGLSENDEWTQDRAKPVTQIVSAEAWGRADCGFTSESYQQGVLSATILYEILLGKATLYAVLVSALVLMAMVKRKDSRGRAKRSGSGATNFSLLKQAGDVEENPGPSRGHMTEYKPTVRLATRDDVPRAVRTLAAAFADYPATRHTVDPDRHIERVTELQELFLTRVGLDIGKVWVADDGAAVAVWTTPESVEAGAVFAEIGPRMAELSGSRLAAQQQMEGLLAPHRPKEPAWFLATVGVSPDHQGKGLGSAVVLPGVEAAERAGVPAFLETSAPRNLPFYERLGFTVTADVEVPEGPRTWCMTRKPGA
modifications: Synthetic Immune Receptor (SIR)
Regarding B3, the “NFAT-GFP ASSAY Positive Cell lines” value is “L363 (+/−), U266” (coculture with L363 cells) and “(+)” (coculture with U266 cells).

B4: 082317-G04 (protein)
chain: MALPVTALLLPLALLLHAARPLEGKPIPNPLLGLDSTGSGEDLKNVFPPEVAVFEPSKAEIAHTQKATLVCLATGFYPDHVELSWWVNGKEVHSGVCTDPQPLKEQPALNDSRYCLSSRLRVSATFWQNPRNHFRCQVQFYGLSENDEWTQDRAKPVTQIVSAEAWGRADCGITSASYHQGVLSATILYEILLGKATLYAVLVSALVLMAMVKRKDSRGRAKRSGSGATNFSLLKQAGDVEENPGPTSMALPVTALLLPLALLLHAARPQIVLTQSPAIMSASPGEKVTITCSASSSVSYMHWFQQKPGTSPKLWIYSTSNLASGVPARFSGSGSGTSYSLTISRMEAEDAATYYCQQRSSYPPTFGGGTKLEIKGGGGSGGGGSGGGGSQVQLQQSGAELMKPGASVKISCKATGYTFSSYWIEWVKQRPGHGLEWIGEILPGSGSTNYNEKFKGKATFTADTSSNTAYMQLSSLTSEDSAVYYCARYDYPWFAYWGQGTLVTVSATREQKLISEEDGSGIQNPDPAVYQLRDSKSSDKSVCLFTDFDSQTNVSQSKDSDVYITDKCVLDMRSMDFKSNSAVAWSNKSDFACANAFNNSIIPEDTFFPSSDVPCDVKLVEKSFETDTNLNFQNLSVIGFRILLLKVAGFNLLMTLRLWSSRAKRSGSGVKQTLNFDLLKLAGDVESNPGPSRGHMTEYKPTVRLATRDDVPRAVRTLAAAFADYPATRHTVDPDRHIERVTELQELFLTRVGLDIGKVWVADDGAAVAVWTTPESVEAGAVFAEIGPRMAELSGSRLAAQQQMEGLLAPHRPKEPAWFLATVGVSPDHQGKGLGSAVVLPGVEAAERAGVPAFLETSAPRNLPFYERLGFTVTADVEVPEGPRTWCMTRKPGA
With B4, the “NFAT-GFP ASSAY Positive Cell lines” value (coculture with L428 cells) was “L428 (+/−)”.

B5: 091616-Z01 (protein)
chain: MALPVTALLLPLALLLHAARPDIVMTQSPDSLAVSLGERATINCKSSQSILYSSNQKNYLAWYQQKPGQSPKLLIYWASTRESGVPDRFSGSGSGTDFTLTISSLQAEDVAVYYCHQYISSYTFGQGTKLEIKLEEQKLISEEDLGSGEDLKNVFPPEVAVFEPSKAEIAHTQKATLVCLATGFYPDHVELSWWVNGKEVHSGVCTDPQPLKEQPALNDSRYCLSSRLRVSATFWQNPRNHFRCQVQFYGLSENDEWTQDRAKPVTQIVSAEAWGRADCGITSASYHQGVLSATILYEILLGKATLYAVLVSALVLMAMVKRKDSRGRAKRSGSGATNFSLLKQAGDVEENPGPTSMDWIWRILFLVGAATGAHSFEQVQLVQSGAEVKKPGASVKVSCKASGYTFASQWMHWMRQAPGQGLEWIGWINPGNVNTKYNEKFKGRATLTVDTSTNTAYMELSSLRSEDTAVYYCARSTWYRPLDYWGQGTLVTVSSTREQKLISEEDLGSGIQNPDPAVYQLRDSKSSDKSVCLFTDFDSQTNVSQSKDSDVYITDKCVLDMRSMDFKSNSAVAWSNKSDFACANAFNNSIIPEDTFFPSSDVPCDVKLVEKSFETDTNLNFQNLSVIGFRILLLKVAGFNLLMTLRLWSSRAKRSGSGVKQTLNFDLLKLAGDVESNPGPSRGHMTEYKPTVRLATRDDVPRAVRTLAAAFADYPATRHTVDPDRHIERVTELQELFLTRVGLDIGKVWVADDGAAVAVWTTPESVEAGAVFAEIGPRMAELSGSRLAAQQQMEGLLAPHRPKEPAWFLATVGVSPDHQGKGLGSAVVLPGVEAAERAGVPAFLETSAPRNLPFYERLGFTVTADVEVPEGPRTWCMTRKPGA
modifications: Synthetic Immune Receptor (SIR)
In the case of B5, the “NFAT-GFP ASSAY Positive Cell lines: L428” value (SIR-expressing Jurkat-NFAT-GFP cells cocultured with L428, relative % GFP positive cells) is “L428 (+/−)”.

(Values after patent US12269859B2, “Synthetic immune receptors and methods of use thereof” (Angeles Therapeutics, Inc., priority 2016, dated 2025).)
